Experimental data reported in article PMC10104521 (Proceedings of the National Academy of Sciences of the …, 2023).
Blank lines part the entries; values can stand above or below the binder they belong to.

What was measured:
[1] = biological target: T1, geranylgeranylated GBP5 (guanylate-binding protein 5) (human), Q96PP8; assay: dynamic light scattering; details: remark: other sources report otherwise
T1 chain: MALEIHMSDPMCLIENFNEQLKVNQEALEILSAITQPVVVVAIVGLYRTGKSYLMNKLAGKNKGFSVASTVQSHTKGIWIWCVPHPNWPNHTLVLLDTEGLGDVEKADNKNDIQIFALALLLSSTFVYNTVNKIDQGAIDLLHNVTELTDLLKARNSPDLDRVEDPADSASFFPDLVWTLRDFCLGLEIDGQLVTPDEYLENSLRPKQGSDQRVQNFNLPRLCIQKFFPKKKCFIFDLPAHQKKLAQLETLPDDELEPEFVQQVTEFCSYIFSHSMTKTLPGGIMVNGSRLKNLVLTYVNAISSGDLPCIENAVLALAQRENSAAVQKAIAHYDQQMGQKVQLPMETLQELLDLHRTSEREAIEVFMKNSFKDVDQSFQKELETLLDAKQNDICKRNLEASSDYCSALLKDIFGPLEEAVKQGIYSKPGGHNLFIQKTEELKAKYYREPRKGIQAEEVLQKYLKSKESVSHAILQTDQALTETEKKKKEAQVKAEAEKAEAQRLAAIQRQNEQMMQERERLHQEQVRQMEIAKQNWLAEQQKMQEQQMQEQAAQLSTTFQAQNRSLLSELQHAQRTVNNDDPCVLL

[2] = biological target: T2, farnesylated GBP1 (guanylate-binding protein 1) (human, UniProt P32455 1-592, C-terminal farnesyl moiety); assay: UV-absorbance-based light scattering
T2 sequence: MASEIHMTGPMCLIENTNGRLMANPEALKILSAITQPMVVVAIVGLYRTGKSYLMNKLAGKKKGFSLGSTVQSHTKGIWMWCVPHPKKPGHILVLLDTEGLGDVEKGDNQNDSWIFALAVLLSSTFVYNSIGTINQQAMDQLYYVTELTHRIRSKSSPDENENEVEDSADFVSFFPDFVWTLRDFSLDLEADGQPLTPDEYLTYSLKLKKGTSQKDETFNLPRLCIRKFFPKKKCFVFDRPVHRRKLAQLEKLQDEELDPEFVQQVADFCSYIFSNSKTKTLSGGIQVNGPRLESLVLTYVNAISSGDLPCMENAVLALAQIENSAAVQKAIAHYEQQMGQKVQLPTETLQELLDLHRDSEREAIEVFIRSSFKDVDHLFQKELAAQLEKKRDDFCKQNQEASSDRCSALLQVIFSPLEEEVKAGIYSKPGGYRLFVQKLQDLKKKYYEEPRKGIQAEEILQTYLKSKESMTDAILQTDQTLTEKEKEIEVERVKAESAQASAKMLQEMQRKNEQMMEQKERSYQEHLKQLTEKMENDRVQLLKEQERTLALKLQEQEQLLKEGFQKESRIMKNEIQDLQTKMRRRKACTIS

[3] = biological target: T3, nongeranylgeranylated GBP5 (human), Q96PP8; assay: dynamic light scattering; details: remark: other sources report otherwise
T3 chain: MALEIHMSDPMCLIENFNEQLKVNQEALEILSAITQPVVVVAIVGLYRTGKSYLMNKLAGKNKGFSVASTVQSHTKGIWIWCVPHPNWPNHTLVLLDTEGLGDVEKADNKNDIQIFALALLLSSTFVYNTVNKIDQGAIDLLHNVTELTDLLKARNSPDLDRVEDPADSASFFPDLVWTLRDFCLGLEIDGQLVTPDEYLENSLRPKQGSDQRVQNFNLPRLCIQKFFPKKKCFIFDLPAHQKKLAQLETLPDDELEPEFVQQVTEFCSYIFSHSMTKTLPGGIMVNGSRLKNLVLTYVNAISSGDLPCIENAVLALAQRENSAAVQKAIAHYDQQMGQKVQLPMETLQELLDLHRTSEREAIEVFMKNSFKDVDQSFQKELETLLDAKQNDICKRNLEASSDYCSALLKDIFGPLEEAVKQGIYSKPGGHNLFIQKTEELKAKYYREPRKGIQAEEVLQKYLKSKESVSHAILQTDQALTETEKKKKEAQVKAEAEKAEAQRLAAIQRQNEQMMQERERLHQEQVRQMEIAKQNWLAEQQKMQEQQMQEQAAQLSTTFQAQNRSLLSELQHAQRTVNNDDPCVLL

[4] = biological target: T4, nonfarnesylated GBP1 (human), P32455; assay: dynamic light scattering; details: remark: other sources report otherwise
T4 chain: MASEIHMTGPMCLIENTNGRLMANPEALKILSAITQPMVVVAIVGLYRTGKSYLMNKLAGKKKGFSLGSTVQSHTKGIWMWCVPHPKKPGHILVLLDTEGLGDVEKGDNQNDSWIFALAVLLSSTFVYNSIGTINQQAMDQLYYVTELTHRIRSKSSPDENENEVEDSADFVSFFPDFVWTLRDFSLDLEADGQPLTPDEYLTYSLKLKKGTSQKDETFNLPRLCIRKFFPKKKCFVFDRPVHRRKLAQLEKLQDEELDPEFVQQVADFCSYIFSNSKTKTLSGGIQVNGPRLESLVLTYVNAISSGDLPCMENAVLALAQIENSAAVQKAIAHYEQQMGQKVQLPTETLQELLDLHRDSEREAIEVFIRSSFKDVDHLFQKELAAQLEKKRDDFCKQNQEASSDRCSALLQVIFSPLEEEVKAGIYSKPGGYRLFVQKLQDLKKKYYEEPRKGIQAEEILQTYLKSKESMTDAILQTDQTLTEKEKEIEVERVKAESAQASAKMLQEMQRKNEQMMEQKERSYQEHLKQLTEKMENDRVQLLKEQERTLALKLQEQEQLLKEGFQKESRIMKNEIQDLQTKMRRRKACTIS

dynamic light scattering = biological target: the molecule itself; assay: dynamic light scattering

stoichiometry N [1]: 2
B1: geranylgeranylated GBP5 (guanylate-binding protein 5), Q96PP8 1-586 (natural protein)
chain: MALEIHMSDPMCLIENFNEQLKVNQEALEILSAITQPVVVVAIVGLYRTGKSYLMNKLAGKNKGFSVASTVQSHTKGIWIWCVPHPNWPNHTLVLLDTEGLGDVEKADNKNDIQIFALALLLSSTFVYNTVNKIDQGAIDLLHNVTELTDLLKARNSPDLDRVEDPADSASFFPDLVWTLRDFCLGLEIDGQLVTPDEYLENSLRPKQGSDQRVQNFNLPRLCIQKFFPKKKCFIFDLPAHQKKLAQLETLPDDELEPEFVQQVTEFCSYIFSHSMTKTLPGGIMVNGSRLKNLVLTYVNAISSGDLPCIENAVLALAQRENSAAVQKAIAHYDQQMGQKVQLPMETLQELLDLHRTSEREAIEVFMKNSFKDVDQSFQKELETLLDAKQNDICKRNLEASSDYCSALLKDIFGPLEEAVKQGIYSKPGGHNLFIQKTEELKAKYYREPRKGIQAEEVLQKYLKSKESVSHAILQTDQALTETEKKKKEAQVKAEAEKAEAQRLAAIQRQNEQMMQERERLHQEQVRQMEIAKQNWLAEQQKMQEQQMQEQAAQLSTTFQAQNRSLLSELQHAQRTVNNDDPCVLL
modifications: here or on the partner: C-terminal geranylgeranyl moiety; C-terminal geranylgeranyl moiety

binding result [2]: binds
B2: geranylgeranylated GBP5 (guanylate-binding protein 5) (natural protein, human, UniProt Q96PP8 1-586, looked up)
chain: MALEIHMSDPMCLIENFNEQLKVNQEALEILSAITQPVVVVAIVGLYRTGKSYLMNKLAGKNKGFSVASTVQSHTKGIWIWCVPHPNWPNHTLVLLDTEGLGDVEKADNKNDIQIFALALLLSSTFVYNTVNKIDQGAIDLLHNVTELTDLLKARNSPDLDRVEDPADSASFFPDLVWTLRDFCLGLEIDGQLVTPDEYLENSLRPKQGSDQRVQNFNLPRLCIQKFFPKKKCFIFDLPAHQKKLAQLETLPDDELEPEFVQQVTEFCSYIFSHSMTKTLPGGIMVNGSRLKNLVLTYVNAISSGDLPCIENAVLALAQRENSAAVQKAIAHYDQQMGQKVQLPMETLQELLDLHRTSEREAIEVFMKNSFKDVDQSFQKELETLLDAKQNDICKRNLEASSDYCSALLKDIFGPLEEAVKQGIYSKPGGHNLFIQKTEELKAKYYREPRKGIQAEEVLQKYLKSKESVSHAILQTDQALTETEKKKKEAQVKAEAEKAEAQRLAAIQRQNEQMMQERERLHQEQVRQMEIAKQNWLAEQQKMQEQQMQEQAAQLSTTFQAQNRSLLSELQHAQRTVNNDDPCVLL
modifications: C-terminal geranylgeranyl moiety

stoichiometry N [3]: 2
B3: nongeranylgeranylated GBP5, Q96PP8 1-586 (natural protein)
chain: MALEIHMSDPMCLIENFNEQLKVNQEALEILSAITQPVVVVAIVGLYRTGKSYLMNKLAGKNKGFSVASTVQSHTKGIWIWCVPHPNWPNHTLVLLDTEGLGDVEKADNKNDIQIFALALLLSSTFVYNTVNKIDQGAIDLLHNVTELTDLLKARNSPDLDRVEDPADSASFFPDLVWTLRDFCLGLEIDGQLVTPDEYLENSLRPKQGSDQRVQNFNLPRLCIQKFFPKKKCFIFDLPAHQKKLAQLETLPDDELEPEFVQQVTEFCSYIFSHSMTKTLPGGIMVNGSRLKNLVLTYVNAISSGDLPCIENAVLALAQRENSAAVQKAIAHYDQQMGQKVQLPMETLQELLDLHRTSEREAIEVFMKNSFKDVDQSFQKELETLLDAKQNDICKRNLEASSDYCSALLKDIFGPLEEAVKQGIYSKPGGHNLFIQKTEELKAKYYREPRKGIQAEEVLQKYLKSKESVSHAILQTDQALTETEKKKKEAQVKAEAEKAEAQRLAAIQRQNEQMMQERERLHQEQVRQMEIAKQNWLAEQQKMQEQQMQEQAAQLSTTFQAQNRSLLSELQHAQRTVNNDDPCVLL

stoichiometry N [4]: 2
B4: nonfarnesylated GBP1, P32455 1-592 (natural protein)
chain: MASEIHMTGPMCLIENTNGRLMANPEALKILSAITQPMVVVAIVGLYRTGKSYLMNKLAGKKKGFSLGSTVQSHTKGIWMWCVPHPKKPGHILVLLDTEGLGDVEKGDNQNDSWIFALAVLLSSTFVYNSIGTINQQAMDQLYYVTELTHRIRSKSSPDENENEVEDSADFVSFFPDFVWTLRDFSLDLEADGQPLTPDEYLTYSLKLKKGTSQKDETFNLPRLCIRKFFPKKKCFVFDRPVHRRKLAQLEKLQDEELDPEFVQQVADFCSYIFSNSKTKTLSGGIQVNGPRLESLVLTYVNAISSGDLPCMENAVLALAQIENSAAVQKAIAHYEQQMGQKVQLPTETLQELLDLHRDSEREAIEVFIRSSFKDVDHLFQKELAAQLEKKRDDFCKQNQEASSDRCSALLQVIFSPLEEEVKAGIYSKPGGYRLFVQKLQDLKKKYYEEPRKGIQAEEILQTYLKSKESMTDAILQTDQTLTEKEKEIEVERVKAESAQASAKMLQEMQRKNEQMMEQKERSYQEHLKQLTEKMENDRVQLLKEQERTLALKLQEQEQLLKEGFQKESRIMKNEIQDLQTKMRRRKACTIS

binding result [2]: binds
B5: geranylgeranylated GBP2 (guanylate-binding protein 2) (natural protein, human, UniProt P32456 1-591, looked up)
chain: MAPEINLPGPMSLIDNTKGQLVVNPEALKILSAITQPVVVVAIVGLYRTGKSYLMNKLAGKKNGFSLGSTVKSHTKGIWMWCVPHPKKPEHTLVLLDTEGLGDIEKGDNENDSWIFALAILLSSTFVYNSMGTINQQAMDQLHYVTELTDRIKANSSPGNNSVDDSADFVSFFPAFVWTLRDFTLELEVDGEPITADDYLELSLKLRKGTDKKSKSFNDPRLCIRKFFPKRKCFVFDWPAPKKYLAHLEQLKEEELNPDFIEQVAEFCSYILSHSNVKTLSGGIPVNGPRLESLVLTYVNAISSGDLPCMENAVLALAQIENSAAVEKAIAHYEQQMGQKVQLPTETLQELLDLHRDSEREAIEVFMKNSFKDVDQMFQRKLGAQLEARRDDFCKQNSKASSDCCMALLQDIFGPLEEDVKQGTFSKPGGYRLFTQKLQELKNKYYQVPRKGIQAKEVLKKYLESKEDVADALLQTDQSLSEKEKAIEVERIKAESAEAAKKMLEEIQKKNEEMMEQKEKSYQEHVKQLTEKMERDRAQLMAEQEKTLALKLQEQERLLKEGFENESKRLQKDIWDIQMRSKSLEPICNIL
modifications: C-terminal geranylgeranyl moiety
binding result (dynamic light scattering): binds

B6: nongeranylgeranylated GBP2 (natural protein, human, UniProt P32456 1-591, looked up)
chain: MAPEINLPGPMSLIDNTKGQLVVNPEALKILSAITQPVVVVAIVGLYRTGKSYLMNKLAGKKNGFSLGSTVKSHTKGIWMWCVPHPKKPEHTLVLLDTEGLGDIEKGDNENDSWIFALAILLSSTFVYNSMGTINQQAMDQLHYVTELTDRIKANSSPGNNSVDDSADFVSFFPAFVWTLRDFTLELEVDGEPITADDYLELSLKLRKGTDKKSKSFNDPRLCIRKFFPKRKCFVFDWPAPKKYLAHLEQLKEEELNPDFIEQVAEFCSYILSHSNVKTLSGGIPVNGPRLESLVLTYVNAISSGDLPCMENAVLALAQIENSAAVEKAIAHYEQQMGQKVQLPTETLQELLDLHRDSEREAIEVFMKNSFKDVDQMFQRKLGAQLEARRDDFCKQNSKASSDCCMALLQDIFGPLEEDVKQGTFSKPGGYRLFTQKLQELKNKYYQVPRKGIQAKEVLKKYLESKEDVADALLQTDQSLSEKEKAIEVERIKAESAEAAKKMLEEIQKKNEEMMEQKEKSYQEHVKQLTEKMERDRAQLMAEQEKTLALKLQEQERLLKEGFENESKRLQKDIWDIQMRSKSLEPICNIL
stoichiometry N (dynamic light scattering): 2
